Measurements reported in article PMC9544323, “Abscisic acid regulates stomatal production by imprinting a SnRK2 kinase–mediated phosphocode on the master regulator [sequence]” (Science Advances, 2022).

T1: GST-SPCH (glutathione S-transferase-tagged …) (Arabidopsis thaliana, UniProt Q700C7 1-364)
T1 construct: cDNA cloned into pDEST15; cDNA recombined into pDEST15; also called GST-tagged SPCH; source: E. coli ArcticExpress (DE3), purified (Pierce Glutathione Agarose)
T1 sequence (looked up): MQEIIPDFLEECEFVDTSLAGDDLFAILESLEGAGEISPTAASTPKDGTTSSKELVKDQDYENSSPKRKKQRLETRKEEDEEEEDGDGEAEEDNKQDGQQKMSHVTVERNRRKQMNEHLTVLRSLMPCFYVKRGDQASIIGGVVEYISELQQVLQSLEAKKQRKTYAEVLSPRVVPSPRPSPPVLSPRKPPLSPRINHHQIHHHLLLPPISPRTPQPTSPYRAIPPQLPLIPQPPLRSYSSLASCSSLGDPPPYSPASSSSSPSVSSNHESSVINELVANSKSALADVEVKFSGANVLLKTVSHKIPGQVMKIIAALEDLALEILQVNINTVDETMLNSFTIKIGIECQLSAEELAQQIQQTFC


Biological target: T1, GST-SPCH (glutathione …)
Experiment: pull-down; GST-SPCH or GST (1 ug) on Pierce Glutathione Agarose; MBP-SnRK2.2/2.3/2.6 or MBP alone (1 ug) added; 4 C, 2 hours; washed five times with 20 mM tris-HCl pH 7.5, 300 mM NaCl, 0.1% NP-40, 1 mM EDTA; blot with anti-MBP
Conditions: both partners purified

| binding result | Binder |
| --- | --- |
| binds | MBP-SnRK2.6 (maltose-binding protein-tagged SnRK2.6) (enzyme, Arabidopsis thaliana, UniProt Q940H6 1-362, looked up, SnRK2.6/SRK2E/OST1, subclass III SNF1-related protein kinase 2, Arabidopsis thaliana; cDNA cloned into pETG-40A; also called SRK2E; OPEN STOMATA 1; source: E. coli ArcticExpress (DE3), purified (MBP amylose resin)) MDRPAVSGPMDLPIMHDSDRYELVKDIGSGNFGVARLMRDKQSNELVAVKYIERGEKIDENVKREIINHRSLRHPNIVRFKEVILTPTHLAIVMEYASGGELFERICNAGRFSEDEARFFFQQLISGVSYCHAMQVCHRDLKLENTLLDGSPAPRLKICDFGYSKSSVLHSQPKSTVGTPAYIAPEVLLKKEYDGKVADVWSCGVTLYVMLVGAYPFEDPEEPKNFRKTIHRILNVQYAIPDYVHISPECRHLISRIFVADPAKRISIPEIRNHEWFLKNLPADLMNDNTMTTQFDESDQPGQSIEEIMQIIAEATVPPAGTQNLNHYLTGSLDIDDDMEEDLESDLDDLDIDSSGEIVYAM |
| binds | MBP-SnRK2.2 (maltose-binding protein-tagged SnRK2.2) (enzyme, Arabidopsis thaliana, UniProt Q39192 1-362, looked up, SnRK2.2/SRK2D, subclass III SNF1-related protein kinase 2, Arabidopsis thaliana; cDNA cloned into pETG-40A; also called SRK2D; source: E. coli ArcticExpress (DE3), purified (MBP amylose resin)) MDPATNSPIMPIDLPIMHDSDRYDFVKDIGSGNFGVARLMTDRVTKELVAVKYIERGEKIDENVQREIINHRSLRHPNIVRFKEVILTPSHLAIVMEYAAGGELYERICNAGRFSEDEARFFFQQLISGVSYCHAMQICHRDLKLENTLLDGSPAPRLKICDFGYSKSSVLHSQPKSTVGTPAYIAPEILLRQEYDGKLADVWSCGVTLYVMLVGAYPFEDPQEPRDYRKTIQRILSVTYSIPEDLHLSPECRHLISRIFVADPATRITIPEITSDKWFLKNLPGDLMDENRMGSQFQEPEQPMQSLDTIMQIISEATIPTVRNRCLDDFMADNLDLDDDMDDFDSESEIDVDSSGEIVYAL |
| binds | MBP-SnRK2.3 (maltose-binding protein-tagged SnRK2.3) (enzyme, Arabidopsis thaliana, UniProt Q39193 1-361, looked up, SnRK2.3/SRK2I, subclass III SNF1-related protein kinase 2, Arabidopsis thaliana; cDNA cloned into pETG-40A; also called SRK2I; source: E. coli ArcticExpress (DE3), purified (MBP amylose resin)) MDRAPVTTGPLDMPIMHDSDRYDFVKDIGSGNFGVARLMRDKLTKELVAVKYIERGDKIDENVQREIINHRSLRHPNIVRFKEVILTPTHLAIIMEYASGGELYERICNAGRFSEDEARFFFQQLLSGVSYCHSMQICHRDLKLENTLLDGSPAPRLKICDFGYSKSSVLHSQPKSTVGTPAYIAPEVLLRQEYDGKIADVWSCGVTLYVMLVGAYPFEDPEEPRDYRKTIQRILSVKYSIPDDIRISPECCHLISRIFVADPATRISIPEIKTHSWFLKNLPADLMNESNTGSQFQEPEQPMQSLDTIMQIISEATIPAVRNRCLDDFMTDNLDLDDDMDDFDSESEIDIDSSGEIVYAL |
